Results reported in article PMC10998612 (Proceedings of the National Academy of Sciences of the …, 2024).

Molecular target: T1, eIF2γ (γ subunit of eIF2, as in the eIF2αγ dimer) (human, UniProt P41091 1-472)
T1 construct: eIF2 gamma subunit (eIF2γ); The γ chain of m6, written alone for the pairs that touch in the crystal structure; also called human eIF2γ; source: E. coli, co-expressed with eIF2α and CDC123 from a multicistronic plasmid, purified as eIF2αγ
Test: crystal structure; 7.5 mg/mL eIF2αγ combined with PPP1R15A_R3^420-452 at a molar ratio of 1:8 with 0.5 mM GMPPNP and 5 mM MgCl2; sitting drop, 20 °C; 11 to 12% PEG 6000, 0.1 M Tris-HCl pH 8.5; 3.35 Å
Details: both partners purified

T1 sequence (P41091 whole entry): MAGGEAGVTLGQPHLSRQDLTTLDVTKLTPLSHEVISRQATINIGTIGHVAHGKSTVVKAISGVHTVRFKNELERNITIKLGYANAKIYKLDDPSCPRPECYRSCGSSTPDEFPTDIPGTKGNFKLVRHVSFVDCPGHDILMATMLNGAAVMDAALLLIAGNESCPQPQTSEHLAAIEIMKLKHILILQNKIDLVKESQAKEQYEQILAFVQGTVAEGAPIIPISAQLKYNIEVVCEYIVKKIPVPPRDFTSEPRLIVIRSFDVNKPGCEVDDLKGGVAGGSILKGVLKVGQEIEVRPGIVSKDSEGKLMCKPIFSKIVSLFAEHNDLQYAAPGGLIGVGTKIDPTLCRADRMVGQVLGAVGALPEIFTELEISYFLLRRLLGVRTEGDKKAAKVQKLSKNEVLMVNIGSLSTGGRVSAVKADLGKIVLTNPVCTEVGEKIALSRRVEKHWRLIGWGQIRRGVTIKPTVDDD

binding result: binds
B1: PPP1R15A^420-452 (R3) peptide (peptide)
peptide: not shown
notes: residue numbers based on UniProt O75807; Only residues 426-434 were built in the structure
